Assay results from patent US20170129961A1 (Amgen, published 2017).
Residue numbers refer to the chain shown, from its start.

T1: human CD70 (human, UniProt P32970 1-193)
T1 construct: also called hu CD70; CD27L
T1 sequence: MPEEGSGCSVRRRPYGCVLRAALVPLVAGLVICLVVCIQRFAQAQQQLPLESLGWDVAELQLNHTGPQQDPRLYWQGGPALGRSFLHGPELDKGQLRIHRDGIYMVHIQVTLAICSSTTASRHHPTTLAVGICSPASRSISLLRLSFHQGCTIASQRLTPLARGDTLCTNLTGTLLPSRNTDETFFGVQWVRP

T2: full-length mouse CD70 with C-terminal V5 tag (mouse, UniProt O55237 1-195)
T2 construct: On transfected CHO cells; also called murine CD70
T2 sequence: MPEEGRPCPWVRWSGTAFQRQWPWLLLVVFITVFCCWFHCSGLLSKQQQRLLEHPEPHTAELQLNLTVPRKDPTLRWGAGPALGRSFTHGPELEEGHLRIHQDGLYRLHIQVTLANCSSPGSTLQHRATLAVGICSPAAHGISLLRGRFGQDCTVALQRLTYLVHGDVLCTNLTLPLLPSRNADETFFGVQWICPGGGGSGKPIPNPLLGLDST

B1: CD70-37 (scFv)
scFv: EVQLLESGGGLVQPGGSLRLSCAASGFTFSSYAMSWVRQAPGKGLEWVSAIGDGGGYTYYADSVKGRFTISRDNSKNTLSLLMNSLRAEDTAVYYCARHDYSNYPYFDYWGQGTLVTVSSGGGGSGGGGSGGGGSEIVLTQSPGTLSLSPGERATLSCRASQGVRSSYFAWYQQKPGQAPRLLIYGASTRATGIPARFSGSGSGTDFTLTISRLEPEDFAVYYCQQYGSSPPTFGQGTKVEIK
notes: As m32
B2: CD70-20 (scFv)
scFv: EVQLLESGGGLVQPGGSLRLSCAASGFTFSTYAMSWVRQAPGKGLEWVSLISGSGGRTYYADSVKGRFTISRDNSKNTLYLQMNSLRAEDTAVYYCAKHDYSNYPYFDYWGQGTLVTVSSGGGGSGGGGSGGGGSEIVLTQSPGTLSLSPGERATLSCRASQGVRSDYLAWYQQKPGQALRLLIYGASSRATGIPDRFSGSGSGTDFTLTISRLEPEDFAVYHCQQYGSTPPTFGGGTKLEIK
notes: As m32
B3: CD70-21 (scFv)
scFv: EVQLLESGGGMVQPGGSLRLSCAASGFTFSTYAMSWVRQAPGKGLEWVSAISGSGGRTFYADSVEGRFTISRDNSKNTLYLQMNSLRAEDTAVYYCAKHDYSNYPYFDYWGQGTLVTVSSGGGGSGGGGSGGGGSEIVLTQSPGTLSLSPGERATLSCRASQSVRSTYLAWYQQKPGQAPRLLIYGASSRATGIPDRFSGSGSGTDFTLTISRLEPEDFAVYSCQQYGDLPFTFGPGTKLEIK
notes: As m32
B4: CD70-25 (scFv)
scFv: B3 scFv with T31S, T167N, S223Y, L240V
notes: As m32
B5: CD70-54 (scFv)
scFv: B3 scFv with M11L, T31I, S52G, G53D, R57S, E65K, T167S, L169V, S223Y, K239R
notes: As m32
B6: CD70-42 (scFv)
scFv: B2 scFv with D167S, L180P, S212N, H223Y, T230S, L240V, E241D
notes: As m32
B7: CD70-41 (scFv)
scFv: B3 scFv with T31S, A97T, T167S, S223Y, L240V, E241D
notes: As m32
B8: CD70-24 (scFv)
scFv: B3 scFv with M11L, V12A, T31S, R57S, E65K, Y95F, T167S, S223Y, L240V
notes: As m32
B9: CD70-66 (scFv)
scFv: EVQLLESGGGLVQPGGSLRLSCAASGFTFSSYAMSWVRQAPGQCLEWVSAISGSGGRTYYADSVKGRFTISRDNSKNTLYLQMNSLRAEDTAVYYCAKHDYSNYPYFDYWGQGTLVTVSSGGGGSGGGGSGGGGSEIVLTQSPGTLSLSPGERATLSCRASQSVRGSYLAWYQQKPGQAPRLLIYSASSRATGIPDRFSGSGSGTDFTLTISRLEPEDFAVYYCQQYGDSPFTFGCGTKVEIK
notes: As m32
B10: CD70-39 (scFv)
scFv: B3 scFv with M11V, G16R, T31S, R57G, K98R, Q112L, T167S, L240V
notes: As m32
B11: CD70-27 (scFv)
scFv: B3 scFv with M11L, R57G, E65K, V164I, T167N, S223Y, D229S, L230S, L240V
notes: As m32
B12: CD70-32 (scFv)
scFv: B2 scFv with L11M, T31S, L50A, Y59F, K65E, A97T, L180P, L240V
notes: As m32
B13: CD70-23 (scFv)
scFv: EVQLLESGGGLVQPGGSLRLSCAASGFTFSVYAMSWVRQAPGKGLEWVSTISDSGGSTFYADSVKGRFTISRDNSKNTLYLQMNRLRAEDTAVYYCARHDYSNYAYFDYWGQGTLVTVSSGGGGSGGGGSGGGGSEIVLTQSPGTLSLSPGERATLSCRASQSVRSSYLAWYQQKPGQAPRLLIYGASSRATGIPDRFSGSGSGTDFTLTISRLEPEDFAVYYCQQYGDLPFTFGPGTKVEIK
notes: As m32
B14: CD70-28 (scFv)
scFv: B2 scFv with G163S, D167N, L180P, S189N, H223S, S229I, T230S, L240V
notes: As m32
B15: CD70-74 (scFv)
scFv: EVQLLESGGGLVQPGGSLRLSCAASGFTFSSYAMSWVRQAPGKGLEWVSAISGSGGSTFYADSVQGRFTISRDNSKNTLYLQVNSLRAEDTAVYYCARHDYSNYPYFDYWGQGTLVTVSSGGGGSGGGGSGGGGSEIVLTQSPGTLSLSPGERATLSCRASQSVRGNYLAWYQQKPGQAPRLLIYGASSRATGIPDRFSGSGSGTDFTLTISRLEPEDFAVYYCQQYGYSPFTFGPGTKVDIK
notes: As m32
B16: CD70-36 (scFv)
scFv: B9 scFv with C44G, C236P
notes: As m32
B17: CD70-43 (scFv)
scFv: EVQLLESGGGVVQPGRSLRLSCAASGFTFSSYAMSWVRQAPGKGLEWVSAISGSGGRTFYADSVEGRFTISRDNSKNTLYLQMNSLRAEDTAVYYCAKHDYSNYPYFDYWGQGTLVTVSSGGGGSGGGGSGGGGSEIVLTQSPGTLSLSPGERATLSCRASQSVRSNYLAWYQQKPGQAPRLLIYGASSRATGIPDRFSGSGSGTDFTLTINRLEPEDFAVYYCQQYGSSPPTFGGGTKVDIK
notes: As m32
B18: CD70-40 (scFv)
scFv: B3 scFv with T31S, V164I, T167S, S223Y, L240V, E241D
notes: As m32
B19: CD70-38 (scFv)
scFv: B17 scFv with V164I, N212S, T233S, G236Q, D241E
notes: As m32
B20: CD70-33 (scFv)
scFv: EVQLLESGGGLVQPGGSLRLSCAASGFTFSTYAMSWVRQAPGKGLEWVSTISDSGGSTFYADSVMGRFTISRDNSKNTLYLQMNSLRAEDTAVYYCARHDYSNYAFFDYWGQGTLVTVSSGGGGSGGGGSGGGGSEIVLTQSPATLSVSPGERATLSCRASQSVSSNLAWYQQKPGQAPRLLIYGASSRATGIPDRFSGSGSGTDFTLTISSLQAEDVAVYYCQQYYSTPFTFGPGTKVEIK
notes: As m32
B21: CD70-34 (scFv)
scFv: B20 scFv with S188T, D195A, D205E, T209A, S212R, Q214E, A215P, V218F, P235G
notes: As m32
B22: CD70-29 (scFv)
scFv: EVQLLESGGGLVQPGGSLRLSCAASGFNFASYAMSWVRQAPGKGLEWVSVISGSGGRTHYADSGKGRFTISRDNSKNTLYLQMNSLRAEDTAVYYCAKHDYSNYPYFDYWGQGTLVTVSSGGGGSGGGGSGGGGSEIVLTQSPGTLSLSPGERATLSCRASQSVRSSYLAWYQQKPGQAPRLLIFGASSRATGIPDRFSGSESGTDFTLTINRLEPEDFAVYYCEQYGNSPPTFGGGTKVEIK
notes: As m32
B23: CD70-44 (scFv)
scFv: EVQLLESGGGLVQPGGSLRLSCAASGFTFSSYAMSWVRQAPGKGLEWVSVISDSGGITDFADSVKGRFIISRDNSRNTLYLQMNSLRAEDTAVYFCARHDYSNYFFFDYWGQGTLVTVSSGGGGSGGGGSGGGGSDIQMTQSPSSLSASVGDRVTITCRASQDISNYLNWYQQKSGKAPELLIYAASSLQSGVPSRFSGSGSGTDFTLTISSLQPEDFATYYCQQSYISPPTFGQGTKVEIK
notes: As m32

These binders were tested against T1, human CD70 (assay: FACS on CHO cells, periplasmic scFv).
Procedure: (§1) All antibodies were diluted in PBS/1.5% FCS. As negative control, cells were incubated with PBS/2% FCS instead of the periplasmic extract. The samples were measured by flow cytometry.

| binding result | Binder |
| --- | --- |
| binds | B1 |
| binds | B2 |
| binds | B3 |
| binds | B4 |
| binds | B5 |
| binds | B6 |
| binds | B7 |
| binds | B8 |
| binds | B9 |
| binds | B10 |
| binds | B11 |
| binds | B12 |
| binds | B13 |
| binds | B14 |
| binds | B15 |
| binds | B16 |
| binds | B17 |
| binds | B18 |
| binds | B19 |
| binds | B20 |
| binds | B21 |
| binds | B22 |
| binds | B23 |

These binders were tested against T2, full-length mouse CD70 with C-terminal … (assay: FACS on CHO cells, periplasmic scFv).
Procedure: as §1

| binding result | Binder |
| --- | --- |
| no binding | B1 |
| no binding | B2 |
| no binding | B3 |
| no binding | B4 |
| no binding | B5 |
| no binding | B6 |
| no binding | B7 |
| no binding | B8 |
| no binding | B9 |
| no binding | B10 |
| no binding | B11 |
| no binding | B12 |
| no binding | B13 |
| no binding | B14 |
| no binding | B15 |
| no binding | B16 |
| no binding | B17 |
| no binding | B18 |
| no binding | B19 |
| no binding | B20 |
| no binding | B21 |
| no binding | B22 |
| no binding | B23 |
